Assay results from US20070167370A1 (UUTECH, published 2007).

Target: T1, human GIP receptor, stably transfected in Chinese hamster lung (CHL) fibroblast cells (human, UniProt P48546 22-466)
T1 sequence (looked up): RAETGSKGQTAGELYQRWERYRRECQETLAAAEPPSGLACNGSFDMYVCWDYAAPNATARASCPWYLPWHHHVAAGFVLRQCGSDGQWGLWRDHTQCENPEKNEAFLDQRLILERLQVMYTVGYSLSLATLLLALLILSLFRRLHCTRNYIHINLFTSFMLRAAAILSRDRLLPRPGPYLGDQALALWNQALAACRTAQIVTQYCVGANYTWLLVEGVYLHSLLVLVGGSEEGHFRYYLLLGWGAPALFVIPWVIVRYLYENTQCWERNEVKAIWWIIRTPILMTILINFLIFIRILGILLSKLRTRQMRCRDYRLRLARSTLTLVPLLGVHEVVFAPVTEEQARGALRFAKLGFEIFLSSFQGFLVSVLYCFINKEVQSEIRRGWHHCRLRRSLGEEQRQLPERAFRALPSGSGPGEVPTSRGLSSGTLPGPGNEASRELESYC
Test: cell-based or functional assay

B1: (Pro^3)GIP (peptide)
peptide: YAPGTFISDYSIAMDKIHQQDFVNWLLAQKGKKNDWKHNITQ
- IC50 of inhibition of GIP-induced cAMP formation (GIP receptor transfected CHL fibroblasts, native GIP 10^-7 M): 2600 nM
